B1: CCNC (parent)
chain: QSSHYLQWILDKQDLLKERQKDLK

Variants of: B1
Assay: protein stability index of a GFP-peptide fusion (GPS, HEK-293T) (PSI 1-6); higher = more stable
Details: c terminus: a fixed tail appended
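Also: lentivirally expressed fusions sorted by FACS into six bins by GFP to DsRed ratio, PSI derived from sequencing read proportions per bin multiplied by bin number.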

Protein stability index, by site and new letter:
D11: A 3.01; P 3.13; K 3.09; I 2.26; L 2.72; N 2.83; R 2.1; C 2.96; T 2.58
L6: P 4.53; S 3.99; Y 2.77; V 3.7; N 4.03; W 2.96; D 4.14; C 3.71; Q 3.72; E 5.2; M 3.21; T 3.2; R 3.54; I 2.83; H 3.69; F 3.52; A 3.83; K 3.92; G 4.11
S3: G 3.39; N 3.17; Q 2.68; K 2.82; W 2.32; V 2.29; T 2.42; M 2.38; L 1.92; E 3.87; C 3.02; Y 2.34; H 2.95; P 3.22; D 3.9; F 1.94; I 2.02; R 3.04
Y5: V 3.28; H 3.93; W 2.53; Q 4.29; L 2.02; G 3.74; C 3.61; F 2.77; M 2.83; T 3.7; E 3.21; D 4.45; N 3.8; A 2.59; K 3.43; R 3.38; P 4.47; S 4.56; I 2.81
Q7: Y 2.85; H 3.58; M 3.79; A 2.39; L 2.22; T 3.66; K 2.84; W 2.1; F 1.57; C 2.42; S 2.65; R 2.37; D 3.9; I 1.94; V 1.97; E 2.73; P 3.31; N 2.84; G 3.23

From the supplement of paper PMC10567573
